{"source": "patent EP4039268A1", "about": "(IMBA-Institut für Molekulare Biotechnologie GmbH, dated 2022)", "key": {"[1]": {"target": "T1, human recombinant soluble ACE2 (human, UniProt Q9BYF1 18-740)", "T1 construct": "also called hrsACE2", "T1 sequence (Q9BYF1 18-740 limits assumed)": "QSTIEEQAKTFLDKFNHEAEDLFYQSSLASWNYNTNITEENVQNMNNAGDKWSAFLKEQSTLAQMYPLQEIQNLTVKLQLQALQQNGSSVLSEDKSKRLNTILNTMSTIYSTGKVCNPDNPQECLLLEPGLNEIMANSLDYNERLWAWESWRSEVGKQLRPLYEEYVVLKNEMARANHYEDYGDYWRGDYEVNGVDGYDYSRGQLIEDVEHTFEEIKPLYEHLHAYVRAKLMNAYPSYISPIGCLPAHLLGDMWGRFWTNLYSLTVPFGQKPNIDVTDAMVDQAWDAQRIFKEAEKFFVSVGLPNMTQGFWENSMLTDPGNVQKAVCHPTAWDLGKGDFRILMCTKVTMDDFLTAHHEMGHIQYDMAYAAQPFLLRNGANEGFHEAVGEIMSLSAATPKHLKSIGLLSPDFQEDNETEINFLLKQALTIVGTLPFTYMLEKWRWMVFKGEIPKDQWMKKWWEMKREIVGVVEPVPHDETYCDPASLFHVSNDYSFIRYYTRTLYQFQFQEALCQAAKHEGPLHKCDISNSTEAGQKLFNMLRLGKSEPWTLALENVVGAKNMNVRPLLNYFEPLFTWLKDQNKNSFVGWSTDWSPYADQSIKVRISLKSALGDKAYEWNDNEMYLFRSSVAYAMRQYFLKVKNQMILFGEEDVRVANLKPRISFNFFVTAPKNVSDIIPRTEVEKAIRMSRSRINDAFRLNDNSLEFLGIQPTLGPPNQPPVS", "assay": "ELISA"}, "[2]": {"target": "T2, monomeric SARS-CoV-2 receptor binding domain (RBD-H6) (SARS-CoV-2, UniProt P0DTC2 319-541)", "T2 construct": "Made in HEK293-6E cells; also called RBD Spike; monomeric RBD", "assay": "ELISA screen"}, "[3]": {"target": "T3, full-length trimeric SARS-CoV-2 Spike protein (Spike-H6) (SARS-CoV-2, N-glycosylated (22 N-glycosylation sites))", "T3 construct": "also called trimeric Spike; full-length Spike-H6", "assay": "ELISA screen"}, "[4]": {"target": "T1, human recombinant soluble ACE2", "assay": "ELISA screen"}, "[5]": {"target": "T3, full-length trimeric SARS-CoV-2 Spike …", "assay": "SPR, Spike immobilized, bivalent analyte model, first binding step"}, "[6]": {"target": "T3, full-length trimeric SARS-CoV-2 Spike …", "assay": "AFM single molecule force spectroscopy, Evans model"}, "[7]": {"target": "T3, full-length trimeric SARS-CoV-2 Spike …", "assay": "inhibition of Spike binding to Vero E6 cells, AFM"}}, "data": [{"binder": "Clec2e CRD-mouse IgG2a-Fc fusion protein (Fc fusion) FGNKCFYFSEDMGNWTFSQSSCIALDAHLALFDSLEELNFLKRYKGASDHWIGLHRESSEHPWIWTDNTEYNNLVLTRGGGECAYLSNRGIYNSSGDIHKKWICNGGGSGGGSGGGS", "values": [{"measurement": "binding result", "setting": "[1]", "value": "no binding (tested: 10 µg/ml)"}, {"measurement": "Mean normalized OD", "setting": "[2]", "value": 0.016, "unit": "OD"}, {"measurement": "Mean normalized OD", "setting": "[3]", "value": 0.017, "unit": "OD"}, {"measurement": "Mean normalized OD", "setting": "[4]", "value": 0.066, "unit": "OD"}]}, {"binder": "Clec14a CRD-mouse IgG2a-Fc fusion protein (Fc fusion) ASGACYSLHHATFKRRAAEEACSLRGGTLSTVHSGSEFQAVLLLLRAGPGPGGGSKDLLFWVALERSISQCTQEKEPLRGFSWLHPDSEDSEDSPLPWVEEPQRSCTVRKCAALQATRGVEPAGWKEMRCHLRTDGYLCKYGGGSGGGSGGGS", "values": [{"measurement": "binding result", "setting": "[1]", "value": "no binding (tested: 10 µg/ml)"}, {"measurement": "Mean normalized OD", "setting": "[2]", "value": 0.004, "unit": "OD"}, {"measurement": "Mean normalized OD", "setting": "[3]", "value": 0.012, "unit": "OD"}, {"measurement": "Mean normalized OD", "setting": "[4]", "value": 0.029, "unit": "OD"}]}, {"binder": "Clec4g CRD-mouse IgG2a-Fc fusion protein (Fc fusion) FQGSCYYFSETQATWDTAQSYCGGQGAHLVIVRGLNEQGFLSQHTRGRGYWLGLRAVRHLNKIQGYRWVDGASLNFSHWNSGEPNDSRGHEDCIMMLHSGLWNDAPCTNERDGWICGGGSGGGSGGGS", "values": [{"measurement": "Kd", "setting": "[5]", "value": 1620, "unit": "nM"}, {"measurement": "koff", "setting": "[5]", "value": 0.0997, "unit": "s⁻¹"}, {"measurement": "kon", "setting": "[5]", "value": 61700, "unit": "M⁻¹ s⁻¹"}, {"measurement": "binding result", "setting": "[1]", "value": "no binding (tested: 10 µg/ml)"}, {"measurement": "koff", "setting": "[6]", "value": 0.037, "unit": "s⁻¹"}, {"measurement": "Ki", "setting": "[7]", "value": "35 to 70", "unit": "nM"}, {"measurement": "Mean normalized OD", "setting": "[3]", "value": 1.68, "unit": "OD"}, {"measurement": "Mean normalized OD", "setting": "[4]", "value": 0.04, "unit": "OD"}]}, {"binder": "Clec1b CRD-mouse IgG2a-Fc fusion protein (Fc fusion) HGDSCYGFFRRNLTWEESKQYCTEQNATLVKTASQSTLDYIAERITSVRWIGLSRQNSKKDWMWEDSSVLRKNGINLSGNTEENMNCAYLHNGKIHPASCKERHYLICEGGGSGGGSGGGS", "values": [{"measurement": "binding result", "setting": "[1]", "value": "no binding (tested: 10 µg/ml)"}, {"measurement": "Mean normalized OD", "setting": "[2]", "value": 0.03, "unit": "OD"}, {"measurement": "Mean normalized OD", "setting": "[3]", "value": 0.024, "unit": "OD"}, {"measurement": "Mean normalized OD", "setting": "[4]", "value": 0.04, "unit": "OD"}]}]}
